To fix the notation:
B1: LINE1-full (parent)
chain: UACGUAGGUGGUUUUCCCCUGAUAGUGCUAAGGGGGCCUGGAAGUUUGGACUGGGCAGAGCUCAACACAGCGUGGCAAAGUGGCUGUGGCUAGACUGCCUCUCUGGAUUCCUCGUCACUCAGCAGGGCAUCUCUGAGAGAAAUGCC

In the data set the parent is B1. Kind of data set: self-cleavage, relative activity (ratio to wild type); higher = more cleavage; in vitro, sequencing; the parent is a self-cleaving ribozyme.
For the variant UACGUAGGUGGUUUUCCCCUGAUAGUGCUAAGGGGGCCUGGAAGUUUGGACUGGGCAGAGCUCAACACAGCGUGGCAAAGUGGCUGUGGCUAGACUGCCUCUCUGGAUUCCUCGUCACUCGGCAAGGCAUCUCUGAGAGAAAUGCC [A121G G125A], the self-cleavage was determined as 1.29.

Take UACGUAGGUGGUUUUCCCCUGAUAGUGCUAAGGGGGCCUGGAAGUUUGGACUGGGCAGAGCUCAACACAGCGUGGCAAAGUGGCUGUGGCUAGACUGCCUCUCUGGAUUCCUCGUCACUCGGCAGGGCAUCUCUGAGAGGAAUGCC [A121G A140G]: the self-cleavage worked out at 1.84.

As to UACGUAGGUGGUUUUCCCCUGAUAGUGCUAAGGGGGCCUGGAAGUUUGGACUGGGCAGAGCUCAACACAGCGUGGCAAAGUGGCUGUGGCUAGACUGCCUCUCUGGAUUCCUCGUCACUCGGCAGGGCAUCUCGGAGAGAAAUGCC [A121G U134G], the self-cleavage is 1.58.

Turning to UACGUAGGUGGUUUUCCCCUGAUAGUGCUAAGGGGGCCUGGAAGUUUGGACUGGGCAGAGCUCAACACAGCGUGGCAAAGUGGCUGUGGCUAGACUGCCUCUCUGGAUUCCUCGUCACUCGGCAGGGCAUCUCCGAGAGAAAUGCC [A121G U134C], the self-cleavage was determined as 1.88.

As for UACGUAGGUGGUUUUCCCCUGAUAGUGCUAAGGGGGCCUGGAAGUUUGGACUGGGCAGAGCUCAACACAGCGUGGCAAAGUGGCUGUGGCUAGACUGCCUCUCUGGAUUCCUCGUCACUCUGCAGAGCAUCUCUGAGAGAAAUGCC [A121U G126A], the self-cleavage was determined as 0.83. As to UACGUAGGUGGUUUUCCCCUGAUAGUGCUAAGGGGGCCUGGAAGUUUGGACUGGGCAGAGCUCAACACAGCGUGGCAAAGUGGCUGUGGCUAGACUGCCUCUCUGGAUUCCUCGUCACUCGGCAGGGCAUCCCUGAGAGAAAUGCC [A121G U132C], the self-cleavage was 1.58. On to UACGUAGGUGGUUUUCCCCUGAUAGUGCUAAGGGGGCCUGGAAGUUUGGACUGGGCAGAGCUCAACACAGCGUGGCAAAGUGGCUGUGGCUAGACUGCCUCUCUGGAUUCCUCGUCACUCGGCGGGGCAUCUCUGAGAGAAAUGCC [A121G A124G], for which the self-cleavage came out at 0.97.

Turning to UACGUAGGUGGUUUUCCCCUGAUAGUGCUAAGGGGGCCUGGAAGUUUGGACUGGGCAGAGCUCAACACAGCGUGGCAAAGUGGCUGUGGCUAGACUGCCUCUCUGGAUUCCUCGUCACUCGACAGGGCAUCUCUGAGAGAAAUGCC [A121G G122A], the self-cleavage was found to be 1.46. The result for UACGUAGGUGGUUUUCCCCUGAUAGUGCUAAGGGGGCCUGGAAGUUUGGACUGGGCAGAGCUCAACACAGCGUGGCAAAGUGGCUGUGGCUAGACUGCCUCUCUGGAUUCCUCGUCACUCGGCAGGGCAUCUCUGAGAGAGAUGCC [A121G A141G] reads 1.65. The result for UACGUAGGUGGUUUUCCCCUGAUAGUGCUAAGGGGGCCUGGAAGUUUGGACUGGGCAGAGCUCAACACAGCGUGGCAAAGUGGCUGUGGCUAGACUGCCUCUCUGGAUUCCUCGUCACUCGGCAGGGUAUCUCUGAGAGAAAUGCC [A121G C128U] reads 1.6; that for UACGUAGGUGGUUUUCCCCUGAUAGUGCUAAGGGGGCCUGGAAGUUUGGACUGGGCAGAGCUCAACACAGCGUGGCAAAGUGGCUGUGGCUAGACUGCCUCUCUGGAUUCCUCGUCACUCUGCAGGGCAUUUCUGAGAGAAAUGCC [A121U C131U], 0.58; that for UACGUAGGUGGUUUUCCCCUGAUAGUGCUAAGGGGGCCUGGAAGUUUGGACUGGGCAGAGCUCAACACAGCGUGGCAAAGUGGCUGUGGCUAGACUGCCUCUCUGGAUUCCUCGUCACUCUGCAGGGCAUCUCUGAGAGAAAUGCC [A121U], 1.34.

With UACGUAGGUGGUUUUCCCCUGAUAGUGCUAAGGGGGCCUGGAAGUUUGGACUGGGCAGAGCUCAACACAGCGUGGCAAAGUGGCUGUGGCUAGACUGCCUCUCUGGAUUCCUCGUCACUCGGCAGGGCAUCUCUGAGAGAAAUGCC [A121G], the self-cleavage was found to be 1.56. For UACGUAGGUGGUUUUCCCCUGAUAGUGCUAAGGGGGCCUGGAAGUUUGGACUGGGCAGAGCUCAACACAGCGUGGCAAAGUGGCUGUGGCUAGACUGCCUCUCUGGAUUCCUCGUCACUCGGCAGGGCAUCUCUGAGAGAAAAGCC [A121G U143A], the self-cleavage was 0.91. Then UACGUAGGUGGUUUUCCCCUGAUAGUGCUAAGGGGGCCUGGAAGUUUGGACUGGGCAGAGCUCAACACAGCGUGGCAAAGUGGCUGUGGCUAGACUGCCUCUCUGGAUUCCUCGUCACUCGGCAGGGCAUCUCUGAGAGAAAGGCC [A121G U143G], with 0.5; and UACGUAGGUGGUUUUCCCCUGAUAGUGCUAAGGGGGCCUGGAAGUUUGGACUGGGCAGAGCUCAACACAGCGUGGCAAAGUGGCUGUGGCUAGACUGCCUCUCUGGAUUCCUCGUCACUCGGCAGGGCAUCUCUGAGAGAAAUGCU [A121G C146U], with 1.39. Then UACGUAGGUGGUUUUCCCCUGAUAGUGCUAAGGGGGCCUGGAAGUUUGGACUGGGCAGAGCUCAACACAGCGUGGCAAAGUGGCUGUGGCUAGACUGCCUCUCUGGAUUCCUCGUCACUCGGCAGGGCAUCUCUGAGAGAAAUACC [A121G G144A], with 1.91. Then UACGUAGGUGGUUUUCCCCUGAUAGUGCUAAGGGGGCCUGGAAGUUUGGACUGGGCAGAGCUCAACACAGCGUGGCAAAGUGGCUGUGGCUAGACUGCCUCUCUGGAUUCCUCGUCACUCGGCAGGGCAUCUCUGAGGGAAAUGCC [A121G A138G], with 1.86. On to UACGUAGGUGGUUUUCCCCUGAUAGUGCUAAGGGGGCCUGGAAGUUUGGACUGGGCAGAGCUCAACACAGCGUGGCAAAGUGGCUGUGGCUAGACUGCCUCUCUGGAUUCCUCGUCACUCGGCAGGGCAUCUCUGAGCGAAAUGCC [A121G A138C], for which the self-cleavage came to 1.71. On to UACGUAGGUGGUUUUCCCCUGAUAGUGCUAAGGGGGCCUGGAAGUUUGGACUGGGCAGAGCUCAACACAGCGUGGCAAAGUGGCUGUGGCUAGACUGCCUCUCUGGAUUCCUCGUCACUCGGCAGGGCAUCUCUGAGUGAAAUGCC [A121G A138U], for which the self-cleavage worked out at 1.59. The result for UACGUAGGUGGUUUUCCCCUGAUAGUGCUAAGGGGGCCUGGAAGUUUGGACUGGGCAGAGCUCAACACAGCGUGGCAAAGUGGCUGUGGCUAGACUGCCUCUCUGGAUUCCUCGUCACUCUGCAGGGCAUCUCUGAGGGAAAUGCC [A121U A138G] reads 1.56; that for UACGUAGGUGGUUUUCCCCUGAUAGUGCUAAGGGGGCCUGGAAGUUUGGACUGGGCAGAGCUCAACACAGCGUGGCAAAGUGGCUGUGGCUAGACUGCCUCUCUGGAUUCCUCGUCACUCUGCAGGGCAUCUCUGAGCGAAAUGCC [A121U A138C], 1.56. UACGUAGGUGGUUUUCCCCUGAUAGUGCUAAGGGGGCCUGGAAGUUUGGACUGGGCAGAGCUCAACACAGCGUGGCAAAGUGGCUGUGGCUAGACUGCCUCUCUGGAUUCCUCGUCACUCUACAGGGCAUCUCUGAGAGAAAUGCC [A121U G122A]: the self-cleavage was 0.27. UACGUAGGUGGUUUUCCCCUGAUAGUGCUAAGGGGGCCUGGAAGUUUGGACUGGGCAGAGCUCAACACAGCGUGGCAAAGUGGCUGUGGCUAGACUGCCUCUCUGGAUUCCUCGUCACUCGGCAGGACAUCUCUGAGAGAAAUGCC [A121G G127A]: the self-cleavage amounted to 1.74. On to UACGUAGGUGGUUUUCCCCUGAUAGUGCUAAGGGGGCCUGGAAGUUUGGACUGGGCAGAGCUCAACACAGCGUGGCAAAGUGGCUGUGGCUAGACUGCCUCUCUGGAUUCCUCGUCACUCUGCAGGGCUUCUCUGAGAGAAAUGCC [A121U A129U], for which the self-cleavage was 1.41. The result for UACGUAGGUGGUUUUCCCCUGAUAGUGCUAAGGGGGCCUGGAAGUUUGGACUGGGCAGAGCUCAACACAGCGUGGCAAAGUGGCUGUGGCUAGACUGCCUCUCUGGAUUCCUCGUCACUCUGCAAGGCAUCUCUGAGAGAAAUGCC [A121U G125A] reads 1.23; that for UACGUAGGUGGUUUUCCCCUGAUAGUGCUAAGGGGGCCUGGAAGUUUGGACUGGGCAGAGCUCAACACAGCGUGGCAAAGUGGCUGUGGCUAGACUGCCUCUCUGGAUUCCUCGUCACUCUGCACGGCAUCUCUGAGAGAAAUGCC [A121U G125C], 1.28. Take UACGUAGGUGGUUUUCCCCUGAUAGUGCUAAGGGGGCCUGGAAGUUUGGACUGGGCAGAGCUCAACACAGCGUGGCAAAGUGGCUGUGGCUAGACUGCCUCUCUGGAUUCCUCGUCACUCGGCAGGGCAACUCUGAGAGAAAUGCC [A121G U130A]: the self-cleavage turned out to be 1.25.

As to UACGUAGGUGGUUUUCCCCUGAUAGUGCUAAGGGGGCCUGGAAGUUUGGACUGGGCAGAGCUCAACACAGCGUGGCAAAGUGGCUGUGGCUAGACUGCCUCUCUGGAUUCCUCGUCACUCGGCAGGGCACCUCUGAGAGAAAUGCC [A121G U130C], the self-cleavage came out at 1.14. With UACGUAGGUGGUUUUCCCCUGAUAGUGCUAAGGGGGCCUGGAAGUUUGGACUGGGCAGAGCUCAACACAGCGUGGCAAAGUGGCUGUGGCUAGACUGCCUCUCUGGAUUCCUCGUCACUCGGCAGGGCGUCUCUGAGAGAAAUGCC [A121G A129G], the self-cleavage came out at 1.58. The result for UACGUAGGUGGUUUUCCCCUGAUAGUGCUAAGGGGGCCUGGAAGUUUGGACUGGGCAGAGCUCAACACAGCGUGGCAAAGUGGCUGUGGCUAGACUGCCUCUCUGGAUUCCUCGUCACUCGGCAGGGCUUCUCUGAGAGAAAUGCC [A121G A129U] reads 1.59; that for UACGUAGGUGGUUUUCCCCUGAUAGUGCUAAGGGGGCCUGGAAGUUUGGACUGGGCAGAGCUCAACACAGCGUGGCAAAGUGGCUGUGGCUAGACUGCCUCUCUGGAUUCCUCGUCACUCGGCAGGGCAUCUCUGAGAGAAAUGAC [A121G C145A], 1.6; that for UACGUAGGUGGUUUUCCCCUGAUAGUGCUAAGGGGGCCUGGAAGUUUGGACUGGGCAGAGCUCAACACAGCGUGGCAAAGUGGCUGUGGCUAGACUGCCUCUCUGGAUUCCUCGUCACUCUGCAGGGCAUCUCUGAGAGAAGUGCC [A121U A142G], 1.4.

UACGUAGGUGGUUUUCCCCUGAUAGUGCUAAGGGGGCCUGGAAGUUUGGACUGGGCAGAGCUCAACACAGCGUGGCAAAGUGGCUGUGGCUAGACUGCCUCUCUGGAUUCCUCGUCACUCUGCAGGGCAUCUCUGAGAGAAUUGCC [A121U A142U]: the self-cleavage was found to be 1.03. With UACGUAGGUGGUUUUCCCCUGAUAGUGCUAAGGGGGCCUGGAAGUUUGGACUGGGCAGAGCUCAACACAGCGUGGCAAAGUGGCUGUGGCUAGACUGCCUCUCUGGAUUCCUCGUCACUCUGCAGGGCAUCUCUGAGAGAGAUGCC [A121U A141G], the self-cleavage was determined as 1.24. The result for UACGUAGGUGGUUUUCCCCUGAUAGUGCUAAGGGGGCCUGGAAGUUUGGACUGGGCAGAGCUCAACACAGCGUGGCAAAGUGGCUGUGGCUAGACUGCCUCUCUGGAUUCCUCGUCACUCGGCAGAGCAUCUCUGAGAGAAAUGCC [A121G G126A] reads 1.24; that for UACGUAGGUGGUUUUCCCCUGAUAGUGCUAAGGGGGCCUGGAAGUUUGGACUGGGCAGAGCUCAACACAGCGUGGCAAAGUGGCUGUGGCUAGACUGCCUCUCUGGAUUCCUCGUCACUCGGCAGGGCAUCUCUGGGAGAAAUGCC [A121G A136G], 1.65; that for UACGUAGGUGGUUUUCCCCUGAUAGUGCUAAGGGGGCCUGGAAGUUUGGACUGGGCAGAGCUCAACACAGCGUGGCAAAGUGGCUGUGGCUAGACUGCCUCUCUGGAUUCCUCGUCACUCGGCAGGGCAUCUCUGAGAGAAGUGCC [A121G A142G], 1.48.

UACGUAGGUGGUUUUCCCCUGAUAGUGCUAAGGGGGCCUGGAAGUUUGGACUGGGCAGAGCUCAACACAGCGUGGCAAAGUGGCUGUGGCUAGACUGCCUCUCUGGAUUCCUCGUCACUCUGCCGGGCAUCUCUGAGAGAAAUGCC [A121U A124C]: the self-cleavage was found to be 1.14.

The values above are taken from the RNAGym collection of RNA variant scans (doi:10.7554/elife.90254).
